Data as given in publication PMC9948308, “DnaK and DnaJ proteins from Hsp70/40 family are involved in Rubisco biosynthesis in Synechocystis sp. PCC6803 and sustain the enzyme assembly in a heterologous system” (BMC Plant Biology, 2023).

T1: RbcL (Rubisco large subunit) from Synechocystis sp. PCC6803, unfolded, isolated from inclusion bodies (Synechocystis sp. PCC6803, UniProt P54205 1-470)
T1 chain: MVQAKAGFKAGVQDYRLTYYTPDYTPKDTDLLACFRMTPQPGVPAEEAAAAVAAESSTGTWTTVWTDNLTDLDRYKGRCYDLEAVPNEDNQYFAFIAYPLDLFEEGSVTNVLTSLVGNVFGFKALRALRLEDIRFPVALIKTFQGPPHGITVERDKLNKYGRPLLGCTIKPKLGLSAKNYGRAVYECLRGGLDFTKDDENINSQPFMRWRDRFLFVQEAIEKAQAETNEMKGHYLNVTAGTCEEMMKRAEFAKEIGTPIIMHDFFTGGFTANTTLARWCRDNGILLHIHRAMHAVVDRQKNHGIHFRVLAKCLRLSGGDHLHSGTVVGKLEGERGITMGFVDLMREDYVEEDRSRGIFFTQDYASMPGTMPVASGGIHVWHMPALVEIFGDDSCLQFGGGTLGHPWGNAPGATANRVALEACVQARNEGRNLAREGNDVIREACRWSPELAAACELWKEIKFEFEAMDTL

B1: RbcL (Rubisco large subunit) from Synechocystis sp. PCC6803, unfolded, isolated from inclusion bodies (natural protein, UniProt P54205 1-470, looked up)
chain: MVQAKAGFKAGVQDYRLTYYTPDYTPKDTDLLACFRMTPQPGVPAEEAAAAVAAESSTGTWTTVWTDNLTDLDRYKGRCYDLEAVPNEDNQYFAFIAYPLDLFEEGSVTNVLTSLVGNVFGFKALRALRLEDIRFPVALIKTFQGPPHGITVERDKLNKYGRPLLGCTIKPKLGLSAKNYGRAVYECLRGGLDFTKDDENINSQPFMRWRDRFLFVQEAIEKAQAETNEMKGHYLNVTAGTCEEMMKRAEFAKEIGTPIIMHDFFTGGFTANTTLARWCRDNGILLHIHRAMHAVVDRQKNHGIHFRVLAKCLRLSGGDHLHSGTVVGKLEGERGITMGFVDLMREDYVEEDRSRGIFFTQDYASMPGTMPVASGGIHVWHMPALVEIFGDDSCLQFGGGTLGHPWGNAPGATANRVALEACVQARNEGRNLAREGNDVIREACRWSPELAAACELWKEIKFEFEAMDTL
notes: Ribulose-1,5-bisphosphate carboxylase/oxygenase large subunit (RbcL), Synechocystis sp; PCC6803; used denatured/unfolded; Used as an unfolded protein diluted from GdnHCl; also called unfolded RbcL; denatured RbcL peptide; source: E. coli BL21 (DE3), purified from inclusion bodies, solubilized in 4 M GdnHCl

How the values were obtained:
[1] = molecular target: T1, RbcL (Rubisco large subunit) from …; assay: MST; with ATP
[2] = molecular target: B1; assay: MST; His-tagged chaperone labelled with RED-tris-NTA (4 µM or 200 nM) and unfolded RbcL in PBS-T (0.1% Tween 20), with ATP; Monolith NT.115 pico; 1:1 binding model; conditions: both partners purified
[3] = molecular target: T2, DnaK2 together with DnaJ Sll1384 (both tested chaperones, with ATP) in the MST titration (Synechocystis sp. PCC6803, UniProt P22358 1-636; P74157 1-314); assay: as above; conditions: both partners purified
T2 construct: DnaK2, Synechocystis sp; PCC6803, as the chain of m3; DnaJ Sll1384, Synechocystis sp; PCC6803, as the chain of m2; also called DnaK + DnaJ; source: E. coli Lemo21, each purified (Ni-NTA; DnaK2 also Superdex 200), mixed
T2 sequence (P22358 whole entry, one chain of several): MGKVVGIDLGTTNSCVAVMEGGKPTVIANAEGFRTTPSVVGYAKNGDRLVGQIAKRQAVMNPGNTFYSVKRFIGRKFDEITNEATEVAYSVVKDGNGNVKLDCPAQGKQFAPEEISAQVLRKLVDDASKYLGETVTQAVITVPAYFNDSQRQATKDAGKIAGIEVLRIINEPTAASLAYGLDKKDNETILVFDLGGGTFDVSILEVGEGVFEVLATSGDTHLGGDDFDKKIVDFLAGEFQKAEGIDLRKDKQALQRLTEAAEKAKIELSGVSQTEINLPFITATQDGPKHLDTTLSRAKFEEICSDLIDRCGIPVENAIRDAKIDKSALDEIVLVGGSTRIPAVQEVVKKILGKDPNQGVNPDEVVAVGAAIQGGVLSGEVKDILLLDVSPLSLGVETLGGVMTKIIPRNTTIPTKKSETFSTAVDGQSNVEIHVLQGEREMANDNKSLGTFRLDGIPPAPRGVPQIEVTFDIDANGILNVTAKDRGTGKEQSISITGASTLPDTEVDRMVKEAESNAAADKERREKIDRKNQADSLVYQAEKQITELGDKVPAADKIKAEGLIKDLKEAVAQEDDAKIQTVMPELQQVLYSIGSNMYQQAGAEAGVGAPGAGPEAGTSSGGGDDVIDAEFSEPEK

[4] = molecular target: T3, DnaK2 from Synechocystis sp. PCC6803, His-tagged (Synechocystis sp. PCC6803, UniProt P22358 1-636, RED-tris-NTA dye on the His-tag (MST only)); assay: as above; conditions: both partners purified
T3 construct: Hsp70 chaperone DnaK2, Synechocystis sp; PCC6803; gene amplified from total DNA with primers Fwdnak2 (NdeI-ATG) and Rvdnak2 (stop codon), cloned into pET16b; source: E. coli Lemo21, purified (Ni-NTA HisTrap, Superdex 200); not shown: His-tag, N-terminal, kept
T3 sequence (P22358 whole entry): as the sequence (P22358 whole entry, one chain of several) above

Kd [1] | Kd [2] | Kd [3] | Kd [4] | Binder
1.36 nM | 1360 ± 2760 nM |  |  | DnaJ Sll1384 from Synechocystis sp. PCC6803, His-tagged (natural protein, UniProt P74157 1-314, looked up, RED-tris-NTA dye on the His-tag (MST only), DnaJ homolog Sll1384 (J domain plus C-terminal TPR domain), Synechocystis sp; PCC6803; gene amplified from total DNA with primers Fwsll1384 (NdeI-ATG) and Rvsll1384 (stop codon), cloned into pET16b; also called DnaJ Sll384; source: E. coli Lemo21, purified (Ni-NTA HisTrap, dialysis); not shown: His-tag, N-terminal, kept) MSSFPIKQGLFNYDVVDHHAILGCPLDATPEEIRKSYLKIAFQLHPDTSKATNEEEQALAAKLFSKFVNPAYEVLSRENDRKEHLLIIQQTVSNLASIGQPSFSSAESQKLQGAKQNLELVYRKVVTPLSKGLYEDFKTVFRKIAQVSEYNLIFLMVKGENASARPVFQTIASSKETVPPVVSGRSPQGPTPTPPINNPPAEELSPFEKSLRRAQENFDRRQYEKAIAELKSALKTDPKNAQAHCLLGMAYLKNNMMTMAKVHIGSAVKLDPNDPKVMAAKKELAKHTSSGSSQEGAKSSQGGFLGGLFGGKKK
 |  | 31.1 ± 1.17 nM | 6050 ± 3410 nM | B1
